Data from US20170158762A1 (ANAPTYSBIO, published 2017).
Positions count from the first letter of the chain named.

How the values were obtained:
[1] = target: cell surface DDR1 on T47D cells and 293/DDR1 cells (UniProt Q08345); test: cell-based or functional assay
[2] = target: T1, Monomeric soluble human DDR1-avi-his, APE1469.6 (hDDR1) (human, UniProt Q08345 21-416, limits assumed); test: SPR (BIACORE T200), antibody captured on anti-human IgG Fc, monomeric DDR1-avi-his as analyte, 25 C, 1:1 fit
T1 construct: also called hDDR1-avi-his; huDDR1; not shown: avi tag and his tag
Experimental: anti-Human IgG (Fc-specific, ≈10,000 RU) (GE Healthcare, Little Chalfont, Buckinghamshire, UK) was immobilized on a BIACORE™[…] chip using EDC-activated amine coupling chemistry. Antibodies (0.5 μg/mL, 50 second capture time at 10 μl/minute) were then captured using this surface to a target capture level of ˜125 RU. Monomeric soluble human DDR1-avi-his was then flowed over captured antibody (300 second association, 600 second dissociation) using a three-fold serial dilution series from 200 nM to 0.27 nM. Runs were performed at 25° C. and HBS-EP+, pH 7.6 buffer was used for all dilutions (Teknova, Hollister, Calif.). Captured antibody and antigen were removed between each cycle using two regeneration steps with 3M MgCl₂ (60 seconds contact time) to ensure a fresh binding surface for each concentration of antigen. The resulting sensorgrams were fit globally using a 1:1 binding model to calculate on- and off-rates (ka and kd, respectively) and dissociation constants as a measure of overall affinity (KD).

[3] = target: T1, Monomeric soluble human DDR1-avi-his, …; test: ELISA on coated hDDR1-avi-his; antibody kept in normal mouse serum (day 0, 1, 4, 7 at 37 C; day 7 at 4 C) or PBS day 0; absorbance 450-540 nm
Experimental: The APE05570 and APE05571 antibodies described in Table 4 were tested for the ability to bind cell surface DDR in mouse serum. The antibodies were incubated in normal mouse serum for 1, 4, or 7 days at 37° C. Varying concentrations of the antibodies were then analyzed for ability to bind to DDR1 by an ELISA assay. Briefly, hDDR1-avi-his was coated on plates at 1 μg/m overnight at 4° C. and washed three times in phosphate buffered saline with Tween (PBST). Plates were then blocked with 3% BSA/PBS (200 μl/well) for one hour. The antibodies were then diluted, added to the washed plates, and incubated for two hours at room temperature. Bound antibodies were detected with goat anti HuIgG-(H+L chain)-horseradish peroxidase (HRP) at a dilution of 1:10,000. After washing the plates, 100 μl of 3,3′,5,5′-tetramethylbenzidine (TMB) substrate was added to detect antibody, and plates were read at 450 nm using a SpectraMax™ microplate reader (Molecular Devices, LLC., Sunnyvale, Calif.).

Chain of cell surface DDR1 on T47D cells and 293/DDR1 cells (Q08345 19-913, stated change not applied): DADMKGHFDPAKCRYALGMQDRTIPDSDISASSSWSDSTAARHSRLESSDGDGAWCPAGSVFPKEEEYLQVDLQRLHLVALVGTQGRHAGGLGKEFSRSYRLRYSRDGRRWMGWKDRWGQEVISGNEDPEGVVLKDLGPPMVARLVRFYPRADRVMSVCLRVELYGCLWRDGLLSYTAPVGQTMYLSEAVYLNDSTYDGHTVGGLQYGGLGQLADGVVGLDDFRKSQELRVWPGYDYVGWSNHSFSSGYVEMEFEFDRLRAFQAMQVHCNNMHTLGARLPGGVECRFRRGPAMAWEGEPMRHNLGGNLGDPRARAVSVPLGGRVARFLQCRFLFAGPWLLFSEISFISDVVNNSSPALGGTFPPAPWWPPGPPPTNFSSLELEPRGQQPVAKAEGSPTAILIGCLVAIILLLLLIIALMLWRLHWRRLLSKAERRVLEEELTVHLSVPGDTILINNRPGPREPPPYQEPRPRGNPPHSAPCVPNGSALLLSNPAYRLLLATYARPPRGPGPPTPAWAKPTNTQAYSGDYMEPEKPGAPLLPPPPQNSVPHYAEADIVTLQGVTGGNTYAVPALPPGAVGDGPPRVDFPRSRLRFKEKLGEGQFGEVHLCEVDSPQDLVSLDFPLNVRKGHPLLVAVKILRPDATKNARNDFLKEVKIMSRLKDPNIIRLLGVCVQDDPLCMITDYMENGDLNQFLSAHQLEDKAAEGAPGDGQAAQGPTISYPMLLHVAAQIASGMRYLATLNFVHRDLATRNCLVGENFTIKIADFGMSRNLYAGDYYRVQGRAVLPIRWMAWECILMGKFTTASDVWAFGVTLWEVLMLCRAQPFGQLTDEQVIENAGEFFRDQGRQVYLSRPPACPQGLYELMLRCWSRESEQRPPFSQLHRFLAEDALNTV
T1 sequence (Q08345 21-416 limits assumed): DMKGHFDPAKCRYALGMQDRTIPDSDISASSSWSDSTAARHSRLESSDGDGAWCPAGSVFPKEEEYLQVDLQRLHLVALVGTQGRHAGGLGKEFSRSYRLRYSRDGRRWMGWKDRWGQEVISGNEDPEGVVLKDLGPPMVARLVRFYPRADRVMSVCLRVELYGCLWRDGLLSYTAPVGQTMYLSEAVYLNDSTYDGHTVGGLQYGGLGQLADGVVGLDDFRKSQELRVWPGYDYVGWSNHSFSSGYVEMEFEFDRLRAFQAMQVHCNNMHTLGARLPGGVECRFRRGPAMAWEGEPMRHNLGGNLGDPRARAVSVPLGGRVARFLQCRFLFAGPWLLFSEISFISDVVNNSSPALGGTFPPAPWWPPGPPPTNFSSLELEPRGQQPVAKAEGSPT

B1: APE05552 (antibody, V domains shown)
VH: EVQLVQSGAEVKKPGESLKISCKGSGYSFTNSYWIGWVRQMPGKGLEWMGMIYPGDSDTRYSPSFQGQVTISSDKSISTAYLQWNSLKASDTAVYYCAKDLAPSAYYDYWGQGTLVTVSS
VL: EIVLTQSPGTLSLSPGERATLSCRASQSVRSSYLAYLAWYQQKPGQAPRLLIYDASSRATGIPDRFSGSGSGTDFTLTISRLEPEDFAVYYCQQYGRLPYTFGQGTRLEIKR
notes: from the stated CDR positions they appear to be variable regions; human IgG (captured with anti-human IgG Fc); also called APE05552.2
Binder B1 has a P-DDR1 IC50 (nM); collagen I-stimulated T47D cells, Phospho-DDR1 ELISA [1] of 27.6 nM, a Kd [2] of 43.8 nM and a koff [2] of 0.0222 s⁻¹. It also gave a kon [2] of 507000 M⁻¹ s⁻¹.

B2: APE05571 (antibody, V domains shown)
VH: B1 VH with N85A, A102T
VL: B1 VL
notes: from the stated CDR positions they appear to be variable regions; human IgG (captured with anti-human IgG Fc); also called APE05571.1
With B2 the P-DDR1 IC50 (nM); collagen I-stimulated T47D cells, Phospho-DDR1 ELISA [1] was 19.3 nM, the Kd [2] was 47 nM and the koff [2] was 0.0233 s⁻¹. The kon [2] was 496000 M⁻¹ s⁻¹ and the “EC50 (read off the curve)” value [3] was about 7 ng/mL.

B3: APE05551 (antibody, V domains shown)
VH: B1 VH with D108N
VL: B1 VL
notes: from the stated CDR positions they appear to be variable regions; human IgG (captured with anti-human IgG Fc); also called APE05551.2
For B3, the P-DDR1 IC50 (nM); collagen I-stimulated T47D cells, Phospho-DDR1 ELISA [1] was 26.1 nM, the Kd [2] was 51.4 nM and the koff [2] was 0.0284 s⁻¹. For the same binder, the kon [2] was 551000 M⁻¹ s⁻¹.
